Results from PMC10319324.
Changes are numbered by the printed parent chain. Names may count otherwise. One block for each binder: values may come before it.

Key:
[1] = target: bovine 20S proteasome (bovine) (UniProt Q2YDE4)
[2] = target: T1, recombinant wildtype human PI31 (Proteasome Inhibitor of 31,000 Da) (human), Q92530; experiment: mass photometry; monomer to dimer; His-PI31 diluted to 40 nM total monomer in PBS, recorded immediately after mixing (TwoMP, Refeyn); peaks at 36 to 37 and 56 to 59 kDa; settings: remark: other sources report otherwise
T1 chain: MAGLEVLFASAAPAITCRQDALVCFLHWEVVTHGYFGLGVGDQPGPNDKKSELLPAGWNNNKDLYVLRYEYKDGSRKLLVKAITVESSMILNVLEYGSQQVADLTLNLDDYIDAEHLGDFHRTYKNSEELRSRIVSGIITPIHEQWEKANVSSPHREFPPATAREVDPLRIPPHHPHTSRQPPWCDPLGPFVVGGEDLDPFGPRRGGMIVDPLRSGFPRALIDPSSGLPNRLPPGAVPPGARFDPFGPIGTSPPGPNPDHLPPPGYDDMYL

- inhibition of β5-specific peptide hydrolysis by 20S (143 nM 20S, 1.4 μM PI31) (times less well than wildtype hPI31) [1]: 3
B1: human PI31 D197A point mutant (natural protein)
chain: T1 chain with D197A

- [monomer]/[M]T ratio [2]: 0.32
- dimer counts (mass photometry) [2]: 2060 counts
- monomer counts (mass photometry) [2]: 2180 counts
- stoichiometry N [2]: 2
B2: recombinant wildtype human PI31 (Proteasome Inhibitor of 31,000 Da), Q92530 1-271 (natural protein)
chain: T1 chain
